Among the data in publication PMC9893218 are stoichiometry N values, retold here.

The test deals with trastuzumab. In words: SEC + native MS.

Broadly, the stoichiometry N is a count of units in the complex or per binding partner. Take trastuzumab (antibody): the stoichiometry N was found to be 2.
